Where no end group is shown, it is not given here. Dylight649 = Dylight649 fluorophore attached through the cysteine

Consider one molecule from paper PMC3716654, “The UmuC subunit of the E. coli DNA polymerase V shows a unique interaction with the β-clamp processivity factor” (BMC Structural Biology, 2013).

The target of this test is T1, E. coli β-clamp processivity factor (E. coli, UniProt P0A988 1-366).
T1 construct: DNA polymerase III β subunit (β sliding clamp, dnaN), E. coli, full length, from plasmid pACYC11-dnaN; residues up to Leu-366 are named; The last residue of the hexa-histidine tag is modelled in both subunits; also called sliding clamp; not shown: His6, N-terminal, kept
T1 sequence (P0A988 whole entry): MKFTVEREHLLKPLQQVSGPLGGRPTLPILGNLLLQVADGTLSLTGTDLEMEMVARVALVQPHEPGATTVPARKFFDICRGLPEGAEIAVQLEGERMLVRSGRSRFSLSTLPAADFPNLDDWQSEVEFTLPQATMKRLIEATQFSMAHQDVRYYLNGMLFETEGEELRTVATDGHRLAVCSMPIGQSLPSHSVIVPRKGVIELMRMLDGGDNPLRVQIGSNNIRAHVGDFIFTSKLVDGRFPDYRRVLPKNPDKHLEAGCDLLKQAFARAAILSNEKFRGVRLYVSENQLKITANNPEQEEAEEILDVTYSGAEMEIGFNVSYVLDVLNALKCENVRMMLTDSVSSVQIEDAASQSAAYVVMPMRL
As to the kind of experiment: crystal structure; β-clamp/Dylight649-UmuC peptide complex purified by SEC, 15 mg/ml; crystallised in 200 mM calcium acetate, 200 mM MES pH 6.5, 14% PEG 6000, sitting drop, 12°C; 2.5 Å. The note with it: both partners purified.

B1: Dylight649-UmuC synthetic peptide (Dylight649-C-QGVAQLNLFDD) (peptide)
peptide: C(Dylight649)QGVAQLNLFDD
notes: cysteine added to permit linkage of the chromophore; not a UmuC residue; 12-mer including the added N-terminal cysteine; Only 356-361 (chain D) and 357-361 (chain C) are ordered in the structure; also called Dylight649-Pol V synthetic peptide; UmuC peptide; source: synthetic peptide (Cambridge Peptides)
For the molecule B1, the binding result is “binds”.
